Substitutions are numbered along the chain they refer to. Blank lines part the entries; values can stand above or below the binder they belong to.
Tests used:
cynomolgus CD16 = target: T1, cynomolgus CD16 (cynomolgus, UniProt Q8SPW2 17-208); test: Octet (printed: Octet surface plasmon resonance)
T1 construct: also called cyCD16

human CD64 = target: T2, human CD64 (human, UniProt P12314 16-288); test: Octet (printed: Octet surface plasmon resonance), n = 1
T2 construct: also called hCD64

[1] = target: T3, PD-L1 on HPAC cells (pre-activated with IFNγ) (human, UniProt Q9NZQ7 19-290); test: flow cytometry on IFNγ-activated HPAC cells (PD-L1+), anti-human IgG secondary antibody, geometric mean
T3 construct: whole, on cells; also called PD-L1 expressing HPAC cells
Experimental: Cells were harvested, checked for viability and counted. 200′000 cells were incubated for 15 minutes at 4° C. with increasing concentrations of the antibodies diluted in FACS buffer (PBS 2% BSA, 0.1% NaN3). Cells were washed twice with cold FACS buffer and re-incubated for further 15 minutes at 4′C with a suitable anti-human IgG secondary antibody. Cells were washed twice with cold FACS buffer and resuspended in 150 μl FACS buffer with a compatible viability marker. Binding of antibodies to living cells was measured by flow cytometry using a Cytoflex Platform (Beckman Coulter). Data was analyzed with FlowJo™ v10 software (BD Life Sciences) and dose-response binding curves were drawn using GiraphPad Prism 9 software.

cynomolgus CD28 = target: T4, cynomolgus CD28 (cynomolgus, UniProt Q0PDN3 19-152); test: Octet (printed: Octet surface plasmon resonance)
T4 construct: Recombinant form not described; also called CD28 (Cynomolgus)

mouse CD64 = target: T5, mouse CD64 (mouse, UniProt P26151 25-297); test: Octet (printed: Octet surface plasmon resonance)
T5 construct: also called mCD64
T5 sequence (looked up): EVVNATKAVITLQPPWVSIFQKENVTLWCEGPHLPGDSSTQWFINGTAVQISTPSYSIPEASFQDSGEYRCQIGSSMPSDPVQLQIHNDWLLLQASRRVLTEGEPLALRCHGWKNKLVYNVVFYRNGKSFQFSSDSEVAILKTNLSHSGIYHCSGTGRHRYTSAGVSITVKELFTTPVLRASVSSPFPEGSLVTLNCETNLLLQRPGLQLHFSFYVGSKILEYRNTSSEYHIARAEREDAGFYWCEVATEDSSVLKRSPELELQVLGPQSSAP

mouse CD32b = target: T6, mouse CD32b (mouse, UniProt P08101 30-207); test: Octet (printed: Octet surface plasmon resonance)
T6 construct: also called mCD32b
T6 sequence (looked up): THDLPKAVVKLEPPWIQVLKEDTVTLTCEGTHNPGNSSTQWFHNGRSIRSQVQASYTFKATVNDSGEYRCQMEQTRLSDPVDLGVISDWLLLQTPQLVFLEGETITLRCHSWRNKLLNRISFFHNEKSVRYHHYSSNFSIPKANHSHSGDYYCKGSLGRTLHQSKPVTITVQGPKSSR

mouse CD16 = target: T7, mouse CD16 (mouse, UniProt P08508 31-215); test: Octet (printed: Octet surface plasmon resonance)
T7 construct: also called mCD16
T7 sequence (looked up): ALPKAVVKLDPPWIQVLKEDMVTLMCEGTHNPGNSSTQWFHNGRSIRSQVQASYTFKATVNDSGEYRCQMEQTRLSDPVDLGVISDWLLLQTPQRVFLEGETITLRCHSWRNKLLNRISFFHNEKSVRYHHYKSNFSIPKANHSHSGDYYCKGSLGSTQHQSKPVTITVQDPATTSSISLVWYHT

[2] = target: T8, cynomolgus neonatal Fc Receptor (FcRn) (cynomolgus, UniProt Q8SPV9 24-297; Q8SPW0 21-119); test: Octet (printed: Octet surface plasmon resonance), n = 2
T8 construct: also called FcRn (Cynomolgus)

[3] = target: T9, human neonatal Fc Receptor (FcRn) (human, UniProt P55899 24-297; P61769 21-119); test: as above
T9 construct: also called FcRn (Human)

[4] = target: T10, mouse neonatal Fc Receptor (FcRn) (mouse, UniProt Q61559 22-297; P01887 21-119); test: as above
T10 construct: also called FcRn (Mouse)
T10 sequence (looked up) 1: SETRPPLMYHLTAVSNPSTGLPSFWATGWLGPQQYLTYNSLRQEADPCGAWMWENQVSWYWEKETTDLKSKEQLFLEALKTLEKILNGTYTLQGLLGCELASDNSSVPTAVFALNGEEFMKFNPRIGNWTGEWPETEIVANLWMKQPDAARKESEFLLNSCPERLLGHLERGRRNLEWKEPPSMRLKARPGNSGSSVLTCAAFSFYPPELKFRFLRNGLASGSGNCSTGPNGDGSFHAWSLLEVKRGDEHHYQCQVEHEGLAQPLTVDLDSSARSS
T10 sequence (looked up) 2: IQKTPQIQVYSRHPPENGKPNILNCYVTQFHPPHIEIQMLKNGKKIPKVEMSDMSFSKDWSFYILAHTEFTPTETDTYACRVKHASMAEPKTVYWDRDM

mouse CD28 = target: T11, mouse CD28 (mouse, UniProt P31041 20-149, limits assumed); test: as above
T11 construct: Recombinant form not described; also called CD28 (Mouse)

human CD28 = target: T12, human CD28 (human, UniProt P10747 19-152); test: as above
T12 construct: Recombinant form not described; also called CD28 (Human)

mouse PD-L1 = target: T13, mouse PD-L1 (mouse, UniProt Q9EP73 19-238, limits assumed); test: as above
T13 construct: Recombinant form not described; also called PD-L1 (Mouse)

human PD-L1 = target: T14, human PD-L1 (human, UniProt Q9NZQ7 19-238); test: as above
T14 construct: Recombinant form not described; also called PD-L1 (Human); B7-H1

cynomolgus PD-L1 = target: T15, cynomolgus PD-L1 (cynomolgus, UniProt G7PSE7 19-238); test: as above
T15 construct: Recombinant form not described; also called PD-L1 (Cynomolgus)

human CD16a V158 = target: T16, human CD16a V158 (human, UniProt P08637 17-208); test: Octet (printed: Octet surface plasmon resonance)
T16 construct: Allelic variant named only as V158; also called hCD16a V158

human CD32b = target: T17, human CD32b (human, UniProt P31994 43-217); test: Octet (printed: Octet surface plasmon resonance)
T17 construct: also called hCD32b
T17 sequence (looked up): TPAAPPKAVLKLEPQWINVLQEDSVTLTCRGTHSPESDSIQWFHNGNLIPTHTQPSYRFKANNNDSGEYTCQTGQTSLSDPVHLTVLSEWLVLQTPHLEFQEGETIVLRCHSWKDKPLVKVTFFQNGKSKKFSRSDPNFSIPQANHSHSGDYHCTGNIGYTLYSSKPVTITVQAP

human CD32a R167 = target: T18, human CD32a R167 (human, UniProt P12318 36-218); test: Octet (printed: Octet surface plasmon resonance)
T18 construct: Allelic variant named only as R167; also called hCD32a R167
T18 sequence (looked up): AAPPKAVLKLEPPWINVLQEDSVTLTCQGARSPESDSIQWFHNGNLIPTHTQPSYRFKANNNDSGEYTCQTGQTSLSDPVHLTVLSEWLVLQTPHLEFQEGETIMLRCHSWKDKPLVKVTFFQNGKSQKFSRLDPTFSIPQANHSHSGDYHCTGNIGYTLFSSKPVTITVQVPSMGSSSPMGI

human CD16a F158 = target: T19, human CD16a F158 (human, UniProt P08637 17-208); test: Octet (printed: Octet surface plasmon resonance)
T19 construct: Allelic variant named only as F158; also called hCD16a F158

human CD32a H167 = target: T20, human CD32a H167 (human, UniProt P12318 36-218); test: Octet (printed: Octet surface plasmon resonance)
T20 construct: Allelic variant named only as H167; also called hCD32a H167
T20 sequence (looked up): T18 sequence (looked up) with R132H

human CD16b NA2 = target: T21, human CD16b NA2 (human, UniProt O75015 17-200, limits assumed); test: Octet (printed: Octet surface plasmon resonance)
T21 construct: also called hCD16b NA2

[5] = target: PD-L1 on engineered CHO-K1 artificial Antigen Presenting Cells (aAPC) (Homo sapiens (Human), UniProt Q9NZQ7 19-290); test: cell-based or functional assay
Sequence of PD-L1 on engineered CHO-K1 artificial Antigen Presenting Cells (aAPC) (Q9NZQ7 19-290 limits assumed, change not shown): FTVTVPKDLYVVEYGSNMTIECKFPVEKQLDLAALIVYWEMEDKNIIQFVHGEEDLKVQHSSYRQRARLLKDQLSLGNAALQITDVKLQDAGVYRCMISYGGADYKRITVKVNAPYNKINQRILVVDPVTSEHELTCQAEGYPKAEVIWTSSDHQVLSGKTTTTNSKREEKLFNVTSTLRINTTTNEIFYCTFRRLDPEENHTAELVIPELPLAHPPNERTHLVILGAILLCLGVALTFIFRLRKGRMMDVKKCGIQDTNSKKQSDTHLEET

T3 sequence (Q9NZQ7 19-290): as the sequence (Q9NZQ7 19-290 limits assumed, change not shown) above
T2 sequence (P12314 16-288 limits assumed): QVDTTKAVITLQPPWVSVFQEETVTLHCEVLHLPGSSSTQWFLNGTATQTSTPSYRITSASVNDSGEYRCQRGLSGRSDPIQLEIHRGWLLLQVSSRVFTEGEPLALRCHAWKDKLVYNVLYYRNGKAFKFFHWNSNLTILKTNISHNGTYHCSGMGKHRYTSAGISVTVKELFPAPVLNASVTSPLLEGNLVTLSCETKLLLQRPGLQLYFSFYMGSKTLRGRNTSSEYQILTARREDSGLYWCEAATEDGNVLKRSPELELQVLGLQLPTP
T14 sequence (Q9NZQ7 19-238 limits assumed): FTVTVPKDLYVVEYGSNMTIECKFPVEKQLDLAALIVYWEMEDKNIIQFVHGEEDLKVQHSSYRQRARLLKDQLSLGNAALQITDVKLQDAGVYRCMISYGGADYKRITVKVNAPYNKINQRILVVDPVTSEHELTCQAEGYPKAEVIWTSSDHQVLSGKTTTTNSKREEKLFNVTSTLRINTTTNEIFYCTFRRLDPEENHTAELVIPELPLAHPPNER
T15 sequence (G7PSE7 entry or part of it): as the sequence (Q9NZQ7 19-238 limits assumed) above, with A33T, A34S, S62N, R68Q, Q82R, F173L, T185A, T192I, H215L counted along it
T11 sequence (P31041 20-149 limits assumed): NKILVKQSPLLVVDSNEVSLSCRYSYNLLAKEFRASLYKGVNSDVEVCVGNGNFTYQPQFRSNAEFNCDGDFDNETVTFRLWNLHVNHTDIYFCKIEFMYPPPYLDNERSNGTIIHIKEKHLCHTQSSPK
T21 sequence (O75015 17-200 N65S limits assumed): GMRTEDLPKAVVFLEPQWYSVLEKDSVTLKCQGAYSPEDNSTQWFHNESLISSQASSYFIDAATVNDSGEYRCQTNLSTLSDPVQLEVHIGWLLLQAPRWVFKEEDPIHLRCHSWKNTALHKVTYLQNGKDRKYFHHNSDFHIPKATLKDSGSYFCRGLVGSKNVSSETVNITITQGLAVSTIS
T16 sequence (P08637 17-208 F176V limits assumed): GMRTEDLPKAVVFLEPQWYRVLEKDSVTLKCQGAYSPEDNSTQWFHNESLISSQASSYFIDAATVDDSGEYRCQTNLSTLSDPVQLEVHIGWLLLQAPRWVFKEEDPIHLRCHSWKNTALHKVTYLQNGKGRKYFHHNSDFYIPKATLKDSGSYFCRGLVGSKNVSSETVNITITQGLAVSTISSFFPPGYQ
T19 sequence (P08637 17-208 limits assumed): as the sequence (P08637 17-208 F176V limits assumed) above, with V160F counted along it
T13 sequence (Q9EP73 19-238 limits assumed): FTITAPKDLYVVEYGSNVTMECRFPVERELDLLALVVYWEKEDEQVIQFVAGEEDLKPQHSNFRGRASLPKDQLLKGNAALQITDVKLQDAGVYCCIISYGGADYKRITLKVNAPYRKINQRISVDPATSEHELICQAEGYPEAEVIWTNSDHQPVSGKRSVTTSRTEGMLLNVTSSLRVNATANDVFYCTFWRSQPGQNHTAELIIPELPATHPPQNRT
T1 sequence (Q8SPW2 17-208 limits assumed): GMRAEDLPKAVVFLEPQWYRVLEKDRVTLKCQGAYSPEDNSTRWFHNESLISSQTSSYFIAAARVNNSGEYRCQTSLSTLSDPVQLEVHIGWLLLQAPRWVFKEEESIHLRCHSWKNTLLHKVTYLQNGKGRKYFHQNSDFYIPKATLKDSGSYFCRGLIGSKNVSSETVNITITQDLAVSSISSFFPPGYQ

- Kd (human CD64): 804 nM
- EC50 (read off the curve) [1]: ~0.9 µg/mL
- Kd (cynomolgus CD28): ~54 nM
- Kd [2]: 8.6 nM
- Kd [3]: 7.1 nM
- Kd [4]: 0.06 nM
- Kd (mouse CD28): 11100 nM
- Kd (human CD28): 54 nM
- Kd (mouse PD-L1): 0.79 nM
- Kd (human PD-L1): 0.3 nM
- Kd (cynomolgus PD-L1): 1.8 nM
B1: AI3S79/N (bispecific antibody, human IgG1, kappa, lambda, L234A L235A)
heavy: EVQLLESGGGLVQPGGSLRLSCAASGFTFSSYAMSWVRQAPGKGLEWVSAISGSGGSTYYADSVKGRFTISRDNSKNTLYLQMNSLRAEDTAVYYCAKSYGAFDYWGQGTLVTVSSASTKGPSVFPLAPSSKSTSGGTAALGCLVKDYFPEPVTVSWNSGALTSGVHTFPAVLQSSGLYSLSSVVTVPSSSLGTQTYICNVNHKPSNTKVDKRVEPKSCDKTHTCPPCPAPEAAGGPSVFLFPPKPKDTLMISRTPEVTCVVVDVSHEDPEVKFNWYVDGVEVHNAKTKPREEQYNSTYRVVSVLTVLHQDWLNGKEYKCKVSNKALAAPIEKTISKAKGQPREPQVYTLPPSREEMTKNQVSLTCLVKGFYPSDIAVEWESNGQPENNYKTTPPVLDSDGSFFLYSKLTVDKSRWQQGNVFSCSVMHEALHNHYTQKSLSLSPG
light 1: not shown
light 2: QSALTQPASVSGSPGQSITISCTGTSSDVFRPPLVSWYQQHPGKAPKLMIYFASLRPSGVSNRFSGSKSGNTASLTISGLQAEDEADYYCSSWDHTGDGHVFGGGTKLTVLGQPKAAPSVTLFPPSSEELQANKATLVCLISDFYPGAVTVAWKADSSPVKAGVETTTPSKQSNNKYAASSYLSLTPEQWKSHRSYSCQVTHEGSTVEKTVAPTECS
notes: also called PD-L1xCD28 bsAb; PD-L1xCD28 κλ body
- binding result (cynomolgus CD16): no binding (tested: highest tested concentration: 2000 nM)
- binding result (mouse CD64): no binding (tested: highest tested concentration: 2000 nM)
- binding result (mouse CD32b): no binding (tested: highest tested concentration: 2000 nM)
- binding result (mouse CD16): no binding (tested: highest tested concentration: 2000 nM)
- binding result (human CD16a V158): no binding (tested: highest tested concentration: 2000 nM)
- binding result (human CD32b): no binding (tested: highest tested concentration: 2000 nM)
- binding result (human CD32a R167): no binding (tested: highest tested concentration: 2000 nM)
- binding result (human CD16a F158): no binding (tested: highest tested concentration: 2000 nM)
- binding result (human CD32a H167): no binding (tested: highest tested concentration: 2000 nM)
- binding result (human CD16b NA2): no binding (tested: highest tested concentration: 2000 nM)

- EC50 (read off the curve): RLU in the PD-1/PD-L1 blockade bioassay (blocked partner m28) [5]: ~0.02 µg/mL
- EC50 (read off the curve) [1]: ~0.6 µg/mL
B2: S79 mAb (antibody, V domains shown)
VH: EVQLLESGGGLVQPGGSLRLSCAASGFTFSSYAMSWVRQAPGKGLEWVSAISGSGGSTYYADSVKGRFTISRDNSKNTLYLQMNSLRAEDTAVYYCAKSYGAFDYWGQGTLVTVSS
VL: QSALTQPASVSGSPGQSITISCTGTSSDVFRPPLVSWYQQHPGKAPKLMIYFASLRPSGVSNRFSGSKSGNTASLTISGLQAEDEADYYCSSWDHTGDGHVFGGGTKLTVL
notes: also called bivalent PD-L1 mAb based on the anti-PD-L1 arm S79
